Experimental data as given in US11629364B2, “Methods for synthesizing anticoagulant polysaccharides” (OPTIMVIA, LLC, priority 2019, dated 2023).

Assay: 6OST activity: 6-O sulfated products detected by LCMS after lyase digestion
Assay type: biochemical
Details: NCS or PNS as sulfo donor; D0S6 and D2S6 disaccharides
Description: A study was conducted in accordance with embodiments of the present disclosure to confirm 6OST activity of enzymes comprising the amino acid sequence of SEQ ID NO: 18, SEQ ID NO: 20, or SEQ ID NO: 22 by detecting the presence of 6-O sulfated polysaccharide products as a result of their sulfotransfer reaction, using a similar LCMS procedure as in Example 3, except that the sulfo acceptor polysaccharide was prepared by chemically 6-O desulfating commercially available heparin (CAS code: 9041-08-1, available from Millipore Sigma), according to the procedure provided by Kariya, Y., et al., (2000) J. Biol. Chem. 275 (34):25949-25958).

| Molecule | 6OST sulfotransferase activity by sulfo group donor |
| --- | --- |
| SEQ ID NO: 18: engineered aryl sulfate-dependent 6OST enzyme, mutant of isoform 1 of the mouse 6OST enzyme (protein, Amino acid sequence encoding for engineered arylsulfate-dependent 6-O-sulfotransferase variant 1, engineered aryl sulfate-dependent 6OST enzyme, mutant of isoform 1 of the mouse 6OST enzyme) MKYYFPVRELERSLRFDMKGDDVIVFLHIGHTGGTTFGRHLVQNVRLEVPCDCRPGQKKCTCYRPNRRETWLFSRFSTGWSCGTNADWTELTNCVPGVLDRRDPAGLRSPRKFYYITLLRDPVSRYLGGWRHHQRGGTNKTSLHMCDGRTPTPEELPPCYEGTDWSGCTLQEFMDCPYNLANNRQVRMLADLSLVGCYNLSFIPESKRAQLLLESAKKNLRGMAFFGLTEFQRKTQYLFERTFNLKFIRPFMQYNSTRAGGVEVDEDTIRHIEELNDLDMQLYDYAKDLFQQRYQYKRQLERREQRLRNREE | active when NCS was the sulfo group donor |
| SEQ ID NO: 20: engineered aryl sulfate-dependent 6OST enzyme, mutant of isoform 1 of the mouse 6OST enzyme (protein, Amino acid sequence encoding for engineered arylsulfate-dependent 6-O-sulfotransferase variant 2, engineered aryl sulfate-dependent 6OST enzyme, mutant of isoform 1 of the mouse 6OST enzyme) MKYYFPVRELERSLRFDMKGDDVIVFLHIGHTGGTTFGRHLVQNVRLEVPCDCRPGQKKCTCYRPNRRETWLFSRFSTGWSCGTRADWTELTNCVPGVLDRRDPAGLRSPRKFYYITLLRDPVSRYLSHWRHTQRGGANKTGLHMCDGRTPTPEELPPCYEGTDWSGCTLQEFMDCPYNLGNNRQVRMLADLSLVGCYNLSFIPESKRAQLLLESAKKNLRGMAFFGLTEFQRKTQYLFERTFNLKFIRPFMQYNSTRAGGVEVDEDTIRHIEELNDLDMQLYDYAKDLFQQRYQYKRQLERREQRLRNREE | active when NCS was the sulfo group donor |
| SEQ ID NO: 22: engineered aryl sulfate-dependent 6OST enzyme, mutant of isoform 1 of the mouse 6OST enzyme (protein, Amino acid sequence encoding for engineered arylsulfate-dependent 6-O-sulfotransferase variant 3, engineered aryl sulfate-dependent 6OST enzyme, mutant of isoform 1 of the mouse 6OST enzyme) MKYYFPVRELERSLRFDMKGDDVIVFLHIGHTGGTTFGRHLVQNVRLEVPCDCRPGQKKCTCYRPNRRETWLFSRFSTGWSCGSHADWTELTNCVPGVLDRRDPAGLRSPRKFYYITLLRDPVSRYLSGWRHHQRGGANKTSLHMCDGRTPTPEELPPCYEGTDWSGCTLQEFMDCPYNLGNNRQVRMLADLSLVGCYNLSFIPESKRAQLLLESAKKNLRGMAFFGLTEFQRKTQYLFERTFNLKFIRPFMQYNSTRAGGVEVDEDTIRHIEELNDLDMQLYDYAKDLFQQRYQYKRQLERREQRLRNREE | active when PNS was the sulfo group donor |

Same assay, conditions: comparing peak area percentages of D0S6 and D2S6 disaccharides

| Molecule | relative 6OST activity among engineered enzymes |
| --- | --- |
| SEQ ID NO: 22: engineered aryl sulfate-dependent 6OST enzyme, mutant of isoform 1 of the mouse 6OST enzyme (protein, Amino acid sequence encoding for engineered arylsulfate-dependent 6-O-sulfotransferase variant 3, engineered aryl sulfate-dependent 6OST enzyme, mutant of isoform 1 of the mouse 6OST enzyme) MKYYFPVRELERSLRFDMKGDDVIVFLHIGHTGGTTFGRHLVQNVRLEVPCDCRPGQKKCTCYRPNRRETWLFSRFSTGWSCGSHADWTELTNCVPGVLDRRDPAGLRSPRKFYYITLLRDPVSRYLSGWRHHQRGGANKTSLHMCDGRTPTPEELPPCYEGTDWSGCTLQEFMDCPYNLGNNRQVRMLADLSLVGCYNLSFIPESKRAQLLLESAKKNLRGMAFFGLTEFQRKTQYLFERTFNLKFIRPFMQYNSTRAGGVEVDEDTIRHIEELNDLDMQLYDYAKDLFQQRYQYKRQLERREQRLRNREE | the most active |

Same assay, conditions: procedures of Example 4; expected

| Molecule | 6OST activity: N,2,6-HS products by MS |
| --- | --- |
| SEQ ID NO: 45: mutant of residues 67-377 of the pig 6OST enzyme, SEQ ID NO: 18 mutations (protein, Amino acid sequence encoding for engineered arylsulfate-dependent 6-O-sulfotransferase variant 6) MKYYFPVRELERSLHFDMKGDDVIVFLHIGHTGGTTFGRHLVQNVRLEVPCDCRPGQKKCTCYRPNRRETWLFSRFSTGWSCGTNADWTELTNCVPGVLDRRDPAALRTPRKFYYITLLRDPVSRYLGGWRHHQRGGTNKTSLHMCDGRTPTPEELPPCYEGTDWSGCTLQEFMDCPYNLANNRQVRMLADLSLVGCYNLSFIPEGKRSQLLLESAKKNLRGMAFFGLTEFQRKTQYLFERTFNLKFIRPFMQYNSTRAGGVEVGEDTIRRIEELNDLDMQLYDYARDLFQQRYQYKRQLERRQQRLRSREE | confirm the presence of N,2,6-HS products |
| SEQ ID NO: 46: mutant of residues 67-377 of the pig 6OST enzyme, SEQ ID NO: 20 mutations (protein, Amino acid sequence encoding for engineered arylsulfate-dependent 6-O-sulfotransferase variant 7) MKYYFPVRELERSLHFDMKGDDVIVFLHIGHTGGTTFGRHLVQNVRLEVPCDCRPGQKKCTCYRPNRRETWLFSRFSTGWSCGTRADWTELTNCVPGVLDRRDPAALRTPRKFYYITLLRDPVSRYLSHWRHTQRGGANKTGLHMCDGRTPTPEELPPCYEGTDWSGCTLQEFMDCPYNLGNNRQVRMLADLSLVGCYNLSFIPEGKRSQLLLESAKKNLRGMAFFGLTEFQRKTQYLFERTFNLKFIRPFMQYNSTRAGGVEVGEDTIRRIEELNDLDMQLYDYARDLFQQRYQYKRQLERRQQRLRSREE | confirm the presence of N,2,6-HS products |
| SEQ ID NO: 47: mutant of residues 67-377 of the pig 6OST enzyme, SEQ ID NO: 22 mutations (protein, Amino acid sequence encoding for engineered arylsulfate-dependent 6-O-sulfotransferase variant 8) MKYYFPVRELERSLHFDMKGDDVIVFLHIGHTGGTTFGRHLVQNVRLEVPCDCRPGQKKCTCYRPNRRETWLFSRFSTGWSCGSHADWTELTNCVPGVLDRRDPAALRTPRKFYYITLLRDPVSRYLSGWRHHQRGGANKTSLHMCDGRTPTPEELPPCYEGTDWSGCTLQEFMDCPYNLGNNRQVRMLADLSLVGCYNLSFIPEGKRSQLLLESAKKNLRGMAFFGLTEFQRKTQYLFERTFNLKFIRPFMQYNSTRAGGVEVGEDTIRRIEELNDLDMQLYDYARDLFQQRYQYKRQLERRQQRLRSREE | confirm the presence of N,2,6-HS products |
| SEQ ID NO: 48: mutant of the full-length pig 6OST enzyme, SEQ ID NO: 18 mutations (protein, Amino acid sequence encoding for engineered arylsulfate-dependent 6-O-sulfotransferase variant 9) MRRRRAGSRTMVERASKFVLVVAGSACFMLILYQYAGPGLSLGAPGGRAPPDDLDLFPTPDPHYEKKYYFPVRELERSLHFDMKGDDVIVFLHIGHTGGTTFGRHLVQNVRLEVPCDCRPGQKKCTCYRPNRRETWLFSRFSTGWSCGTNADWTELTNCVPGVLDRRDPAALRTPRKFYYITLLRDPVSRYLGGWRHHQRGGTNKTSLHMCDGRTPTPEELPPCYEGTDWSGCTLQEFMDCPYNLANNRQVRMLADLSLVGCYNLSFIPEGKRSQLLLESAKKNLRGMAFFGLTEFQRKTQYLFERTFNLKFIRPFMQYNSTRAGGVEVGEDTIRRIEELNDLDMQLYDYARDLFQQRYQYKRQLERRQQRLRSREERLLHRAKEAPPRGDTEEPGRVPTEDYMSHIIEKW | confirm the presence of N,2,6-HS products |
| SEQ ID NO: 49: mutant of the full-length pig 6OST enzyme, SEQ ID NO: 20 mutations (protein, Amino acid sequence encoding for engineered arylsulfate-dependent 6-O-sulfotransferase variant 10) MRRRRAGSRTMVERASKFVLVVAGSACFMLILYQYAGPGLSLGAPGGRAPPDDLDLFPTPDPHYEKKYYFPVRELERSLHFDMKGDDVIVFLHIGHTGGTTFGRHLVQNVRLEVPCDCRPGQKKCTCYRPNRRETWLFSRFSTGWSCGTRADWTELTNCVPGVLDRRDPAALRTPRKFYYITLLRDPVSRYLSHWRHTQRGGANKTGLHMCDGRTPTPEELPPCYEGTDWSGCTLQEFMDCPYNLGNNRQVRMLADLSLVGCYNLSFIPEGKRSQLLLESAKKNLRGMAFFGLTEFQRKTQYLFERTFNLKFIRPFMQYNSTRAGGVEVGEDTIRRIEELNDLDMQLYDYARDLFQQRYQYKRQLERRQQRLRSREERLLHRAKEAPPRGDTEEPGRVPTEDYMSHIIEKW | confirm the presence of N,2,6-HS products |
| SEQ ID NO: 50: mutant of the full-length pig 6OST enzyme, SEQ ID NO: 22 mutations (protein, Amino acid sequence encoding for engineered arylsulfate-dependent 6-O-sulfotransferase variant 11) MRRRRAGSRTMVERASKFVLVVAGSACFMLILYQYAGPGLSLGAPGGRAPPDDLDLFPTPDPHYEKKYYFPVRELERSLHFDMKGDDVIVFLHIGHTGGTTFGRHLVQNVRLEVPCDCRPGQKKCTCYRPNRRETWLFSRFSTGWSCGSHADWTELTNCVPGVLDRRDPAALRTPRKFYYITLLRDPVSRYLSGWRHHQRGGANKTSLHMCDGRTPTPEELPPCYEGTDWSGCTLQEFMDCPYNLGNNRQVRMLADLSLVGCYNLSFIPEGKRSQLLLESAKKNLRGMAFFGLTEFQRKTQYLFERTFNLKFIRPFMQYNSTRAGGVEVGEDTIRRIEELNDLDMQLYDYARDLFQQRYQYKRQLERRQQRLRSREERLLHRAKEAPPRGDTEEPGRVPTEDYMSHIIEKW | confirm the presence of N,2,6-HS products |
